Measured values from publication PMC10710730, “ProNGF promotes brain metastasis through TrkA/EphA2 induced Src activation in triple negative breast cancer cells” (Experimental Hematology & Oncology, 2023).

Target: T1, EphA2, endogenous in MDA-MB-231 cells (human (endogenous in MDA-MB-231), UniProt P29317 24-976)
T1 construct: EphA2 receptor, endogenous in the human breast cancer cell line MDA-MB-231; also called EphA2 receptor; source: endogenous, MDA-MB-231 cells
Test: proximity ligation; Duolink in Situ-Red kit rabbit/goat on PFA-fixed cells on collagen I coated slides; TrkA/EphA2 red dots per cell counted; cells treated with proNGF (0.5 nM, 0 to 120 min), in MDA-MB-231 TrkA also with p75NTR siRNA
Settings: partners not purified

T1 sequence (P29317 24-976): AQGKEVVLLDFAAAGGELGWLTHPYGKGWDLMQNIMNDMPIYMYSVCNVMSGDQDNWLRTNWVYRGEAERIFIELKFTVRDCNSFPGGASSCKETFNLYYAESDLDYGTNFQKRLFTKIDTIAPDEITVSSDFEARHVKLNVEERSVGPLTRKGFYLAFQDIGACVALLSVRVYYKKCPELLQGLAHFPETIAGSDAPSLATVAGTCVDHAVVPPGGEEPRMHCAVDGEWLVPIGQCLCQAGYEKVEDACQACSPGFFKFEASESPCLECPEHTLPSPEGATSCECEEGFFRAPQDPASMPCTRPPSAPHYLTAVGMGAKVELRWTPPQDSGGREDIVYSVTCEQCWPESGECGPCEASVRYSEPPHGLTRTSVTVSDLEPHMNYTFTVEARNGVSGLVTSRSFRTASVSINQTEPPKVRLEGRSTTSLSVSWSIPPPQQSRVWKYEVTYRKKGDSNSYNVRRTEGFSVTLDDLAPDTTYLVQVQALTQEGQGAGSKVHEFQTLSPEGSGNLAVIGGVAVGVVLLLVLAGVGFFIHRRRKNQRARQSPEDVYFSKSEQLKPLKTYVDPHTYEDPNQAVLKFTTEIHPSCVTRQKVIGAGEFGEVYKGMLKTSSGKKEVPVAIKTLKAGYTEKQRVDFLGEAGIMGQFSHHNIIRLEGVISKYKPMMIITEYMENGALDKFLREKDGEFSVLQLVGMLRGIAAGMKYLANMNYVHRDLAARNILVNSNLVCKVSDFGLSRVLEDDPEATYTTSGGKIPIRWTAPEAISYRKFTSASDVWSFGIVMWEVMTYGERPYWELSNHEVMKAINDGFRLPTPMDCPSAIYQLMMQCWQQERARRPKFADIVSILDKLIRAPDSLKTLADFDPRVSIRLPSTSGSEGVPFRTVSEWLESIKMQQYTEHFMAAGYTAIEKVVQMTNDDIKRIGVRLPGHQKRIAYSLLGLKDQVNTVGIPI

fold increase of TrkA/EphA2 PLA signal, proNGF 60 min over 0 min: 2 fold
B1: TrkA (tyrosine kinase receptor TrkA, Tropomyosin kinase A), overexpressed in MDA-MB-231 cells (receptor)
chain: not shown
notes: TrkA, receptor of NGF and proNGF; also called MDA-MB-231-TrkA; MDA-MB-231 HA-TrkA
